# Assay results published in the RNAGym collection of RNA variant scans (doi:10.1101/gr.219683.116).
# B1: mRNA-splicing (parent)
# chain: AGUUGCUGCUGGGAGCUCCAGCACAGUGAAAUGGACAGAAGGGCAGAGCAA
# Variants of: B1
# Test: exon inclusion enrichment index; higher = more inclusion; WT1 exon 5 minigene, HEK293
row,Variant,exon inclusion enrichment index
1,C6A U7A C9G U10C,1.05
2,C6A U7C C9A U10C A37C G38C,3.1
3,C6A U7C C9A U10C A37C G38A,2.46
4,C6A U7C C9A U10C A37C G38U,2.3
5,C6A U7A C9A U10G,0.498
6,C6A U7A C9A U10C,2.59
7,C6A U7C C9A U10C A20G G21A,3.72
8,C6A U7C C9A U10C A20G G21U,1.35
9,C6A U7C C9A U10C A20G G21C,3.34
10,C6A U7C C9A U10C A39G A40C,3.81
11,C6A U7C C9A U10C A39G A40G,0.569
12,C6A U7A C9A U10A G42A,1.81
13,C6A U7A C9A U10A G42C,1.99
14,C6A U7A C9A U10A G42U,0.988
15,C6A U7A C9A U10A G43C,1
16,C6A U7A C9A U10A G43A,2.02
17,C6A U7A C9A U10A G43U,0.644
18,C6A U7A C9A U10A U32C G33C,1.09
19,C6A U7A C9A U10A U32C G33A,0.27
20,C6A U7A C9A U10A U32C G33U,0.476
21,C6A U7A C9A U10A G33C,1.04
22,C6A U7A C9A U10A G33A,0.0584
23,C6A U7A C9A U10A G33U,0.2
24,C6A U7A C9A U10A G33A G34A,0.0545

row,Variant,exon inclusion enrichment index
1,C6A U7A C9A U10A G33A G34C,0.0943
2,C6A U7A C9A U10A G33A G34U,0.0565
3,C6A U7A C9A U10A G41A G42U,0.617
4,C6A U7A C9A U10A G41A G42C,1.25
5,C6A U7A C9A U10A G41A G42A,0.559
6,C6A U7C C9A U10C A37G G38U,1.68
7,C6A U7C C9A U10C A37G G38C,3.21
8,C6A U7C C9A U10C A37G G38A,3
9,C6A U7A C9A U10A G41C G42A,1
10,C6A U7A C9A U10A G41C G42C,2.14
11,C6A U7A C9A U10A G41C G42U,2.17
12,C6A U7A C9A U10A G15A,0.818
13,C6A U7A C9A U10A G15U,0.786
14,C6A U7A C9A U10A G15C,1.25
15,C6A U7A C9A U10A G41U,0.866
16,C6A U7A C9A U10A G41C,2.07
17,C6A U7A C9A U10A G41A,0.4
18,C6A U7A G8U C9A,0.467
19,C6A U7A C9A U10A G38U,0.223
20,C6A U7A C9A U10A G38A,0.314
21,C6A U7A C9A U10A G38C,0.524
22,C6A U7C C9A U10C A35U C36G,0.375
23,C6A U7C C9A U10C A35U C36A,0.00835
24,C6A U7C C9A U10C A35U C36U,0.135

row,Variant,exon inclusion enrichment index
1,C6A U7A C9A U10A G46U,0.388
2,C6A U7A C9A U10A G46C,0.722
3,C6A U7A C9A U10A G46A,0.993
4,C6A U7A C9A U10A G15A C16A,0.363
5,C6A U7A C9A U10A G15A C16U,0.351
6,C6A U7A C9A U10A G15A C16G,0.366
7,C6A U7A C9A U10A G33C G34A,0.421
8,C6A U7A C9A U10A G33C G34C,0.353
9,C6A U7A C9A U10A G33C G34U,0.522
10,C6A U7C C9A U10C A29G A30U,1.72
11,C6A U7C C9A U10C A29G A30G,3.23
12,C6A U7C C9A U10C A29G A30C,2.23
13,C6A U7A U10G,0.84
14,C6A U7A U10A,0.234
15,C6A U7A U10C,2.53
16,C6A U7C C9A U10C A30C,3.29
17,C6A U7C C9A U10C A30G,3.61
18,C6A U7C C9A U10C A30U,2.51
19,C6A U7C C9A U10C A20C G21C,2.31
20,C6A U7C C9A U10C A20C G21A,2.38
21,C6A U7C C9A U10C A20C G21U,2.72
22,C6A U7A G8C U10A,0.371
23,C6A U7A C9A U10A G21A,0.506
24,C6A U7A C9A U10A G21C,0.86

row,Variant,exon inclusion enrichment index
1,C6A U7A C9A U10A G21U,0.507
2,C6A U7A C9A U10A G43U C44U,0.125
3,C6A U7A C9A U10A G43U C44G,0.238
4,C6A U7A C9A U10A G43U C44A,0.0263
5,C6A U7C C9A U10C A35G C36G,0.776
6,C6A U7C C9A U10C A35G C36U,0.107
7,C6A U7C C9A U10C A35G C36A,2.29
8,C6A U7C C9A U10C A14U G15C,2.67
9,C6A U7C C9A U10C A14U G15U,2.08
10,C6A U7C C9A U10C A14U G15A,2.06
11,C6A U7A G8A C9A U10C,1.36
12,C6A U7A G8A C9A U10A,0.207
13,C6A U7A C9A U10A U32G G33U,0.178
14,C6A U7A C9A U10A U32G G33C,0.75
15,C6A U7A C9A U10A U32G G33A,0.11
16,C6A U7A G8U U10A,0.0805
17,C6A U7A C9A U10A G15U C16A,0.381
18,C6A U7A C9A U10A G15U C16U,0.36
19,C6A U7A C9A U10A G15U C16G,0.298
20,C6A U7A G8U C9G U10A,0.135
21,C6A U7A C9A U10A G33U G34C,0.221
22,C6A U7A C9A U10A G33U G34A,0.0617
23,C6A U7A C9A U10A G33U G34U,0.0929
24,C6A U7C C9A U10C A23C C24U,2.26

row,Variant,exon inclusion enrichment index
1,C6A U7C C9A U10C A23C C24G,4.61
2,C6A U7C C9A U10C A23C C24A,3.49
3,C6A U7A C9A U10A G34U A35U,0.0771
4,C6A U7A C9A U10A G34U A35C,0.203
5,C6A U7A C9A U10A G34U A35G,0.134
6,C6A U7A C9A U10A G21C C22U,0.813
7,C6A U7A C9A U10A G21C C22G,1.63
8,C6A U7A C9A U10A G21C C22A,0.729
9,C6A U7A G8C C9U U10A,0.0222
10,C6A U7A C9A U10A G26A U27C,2.37
11,C6A U7A C9A U10A G26A U27G,1.32
12,C6A U7A C9A U10A G26A U27A,0.813
13,C6A U7C C9A U10C A31U,3.04
14,C6A U7C C9A U10C A31C,3.96
15,C6A U7C C9A U10C A31G,3.73
16,C6A U7A C9A U10A U32A G33C,0.991
17,C6A U7A C9A U10A U32A G33A,0.234
18,C6A U7A C9A U10A U32A G33U,0.298
19,C6A U7A C9A U10A G26U U27A,0.264
20,C6A U7A C9A U10A G26U U27G,1.76
21,C6A U7A C9A U10A G26U U27C,2.22
22,C6A U7C C9A U10C A31C U32C,4.42
23,C6A U7C C9A U10C A31C U32G,3.9
24,C6A U7C C9A U10C A31C U32A,2.78

row,Variant,exon inclusion enrichment index
1,C6A U7C C9A U10C A35G,1.79
2,C6A U7C C9A U10C A35U,1.36
3,C6A U7C C9A U10C A35C,1.54
4,C6A U7A C9A U10C G11A,1.91
5,C6A U7A C9A U10C G11U,3.37
6,C6A U7A C9A U10C G11C,4.28
7,C6A U7A C9A U10A U17A,0.63
8,C6A U7A C9A U10A U17C,0.424
9,C6A U7A C9A U10A U17G,0.51
10,C6A U7A C9A U10A G42C G43A,1.78
11,C6A U7A C9A U10A G42C G43U,1.96
12,C6A U7A C9A U10A G42C G43C,1.88
13,C6A U7C C9A U10A G11A,1.98
14,C6A U7C C9A U10A G11U,2.49
15,C6A U7C C9A U10A G11C,2.78
16,C6A U7A C9A U10A G43A C44A,1.84
17,C6A U7A C9A U10A G43A C44G,2.4
18,C6A U7A C9A U10A G43A C44U,0.656
19,C6A U7A C9A U10A G38U A39U,0.0139
20,C6A U7A C9A U10A G38U A39C,0.692
21,C6A U7A C9A U10A G38U A39G,0.321
22,C6A U7C C9A G11A,0.337
23,C6A U7C C9A G11C,2.88
24,C6A U7C C9A G11U,2.1

row,Variant,exon inclusion enrichment index
1,C6A U7A G8U C9U U10A,0.00366
2,C6A U7A C9A U10A G38C A39U,0.0576
3,C6A U7A C9A U10A G38C A39G,0.734
4,C6A U7A C9A U10A G38C A39C,0.874
5,C6A U7C C9A U10C A23U C24U,0.978
6,C6A U7C C9A U10C A23U C24G,3.98
7,C6A U7C C9A U10C A23U C24A,1.89
8,C6A U7A C9A U10A G46C A47U,0.833
9,C6A U7A C9A U10A G46C A47C,0.943
10,C6A U7A C9A U10A G46C A47G,1.23
11,C6A U7C C9A U10C A37U G38U,1.27
12,C6A U7C C9A U10C A37U G38A,1.46
13,C6A U7C C9A U10C A37U G38C,2.21
14,C6A U7A C9U U10C,1.36
15,C6A U7A C9U U10G,0.0647
16,C6A U7A C9U U10A,0.0203
17,C6A U7A C9A U10A G46A A47U,0.928
18,C6A U7A C9A U10A G46A A47C,1.64
19,C6A U7A C9A U10A G46A A47G,0.249
20,C6A U7C C9A U10C A29G,3.29
21,C6A U7C C9A U10C A29C,3.21
22,C6A U7C C9A U10C A29U,1.74
23,C6A U7A G8A C9U U10A,0.0156
